{"source": "patent US12419977B2", "about": "“Radiopharmaceuticals” (AdvanCell Isotopes Pty Limited, priority 2022, dated 2025)", "tested_on": "PC3-PIP (PSMA expressing) and PC3 (PSMA deficient) tumours", "parameters": "species or system male BALB/c nude mice", "conditions": "mouse, in vivo", "method": "In vivo biodistribution studies of [^212Pb]Pb-ADVC001 were performed using an animal model of prostate cancer. Tumour xenographs were grown on opposite flanks of male BALB/c nude mice after inoculation with 10^6 PC3-PIP (PSMA expressing) and PC3 (PSMA deficient) cell lines. In this model, the PC3 tumours act as a control to assess the specificity of [^212Pb]Pb-ADVC001 uptake within PSMA expressing tumours. Once the tumours had reached 5-10 mm in size, 3 groups (representing 3 different time points) of 5 mice were injected with 300-325 kBq of [^212Pb]Pb-ADVC001 via the lateral tail vein. At 1, 4 and 24 hours after injection, mice were euthanised and multiple organs collected and weighed. Radioactivity in each organ was counted using a well-type gamma counter (counting window 218-258 keV). Activity levels of [^212Pb]Pb-ADVC001 expressed as percent injected dose/gram of tissue (% ID/g) measured from each organ over the 3 time points are given in Table 1 with the biodistribution plots presented in FIG. 1A. Activity accumulation over time of [^212Pb]Pb-ADVC001 for major organs (kidney, liver and bone marrow) along with tumour uptake is provided in FIG. 3. […] The biodistribution of [^212Pb]Pb-PSMA-I&T expressed as percent injected dose/gram of tissue (% ID/g) measured from each organ over the 3 time points is presented in FIG. 1B. […]", "data": [{"smiles": "NC(=O)CN1CCN(CC(N)=O)CCN(C(CCC(=O)N[C@H](Cc2ccc(O)c(I)c2)C(=O)N[C@H](Cc2ccccc2)C(=O)N[C@H](CCCCNC(=O)CCCCCCC(=O)NCCCC[C@H](NC(=O)N[C@@H](CCC(=O)O)C(=O)O)C(=O)O)C(=O)O)C(=O)O)CCN(CC(N)=O)CC1", "note": "(stereo partly shown) [[^212Pb]Pb-ADVC001, metal not drawn]", "values": [{"measurement": "tumour to kidney activity ratio", "value": "significantly higher"}]}]}
